# In patent publication US20070231899A1 (published 2007):
# B1: A61 antiangiogenic plasminogen fragment (Lys78-Lys468 of plasminogen) (other)
# chain: KVYLSECKTGNGKNYRGTMSKTKNGITCQKWSSTSPHRPRFSPATHPSEGLEENYCRNPDNDPQGPWCYTTDPEKRYDYCDILECEEECMHCSGENYDGKISKTMSGLECQAWDSQSPHAHGYIPSKFPNKNLKKNYCRNPDRELRPWCFTTDPNKRWELCDIPRCTTPPPSSGPTYQCLKGTGENYRGNVAVTVSGHTCQHWSAQTPHTHNRTPENFPCKNLDENYCRNPDGKRAPWCHTTNSQVRWEYCKIPSCDSSPVSTEQLAPTAPPELTPVVQDCYHGDGQSYRGTSSTTTTGKKCQSWSSMTPHRHQKTPENYPNAGLTMNYCRNPDADKGPWCFTTDPSVRWEYCNLKKCSGTEASVVAPPPVVLLPDVETPSEEDCMFGNGK
# modifications: radioiodinated (iodinated with Iodobeads) in the binding assay
# notes: also called AAPF; anti-angiogenesis plasmin fragment
# Legend:
# [1] = target: plasmin (Homo sapiens (Human)) (UniProt P00747); experiment: surface plasmon resonance, phospholipid-associated annexin A2; phospholipid-associated annexin A2 with plasmin
# [2] = target: plasmin (Homo sapiens (Human)) (UniProt P00747); experiment: surface plasmon resonance, phospholipid-associated AIIt; AIIt with plasmin
# [3] = target: tissue-type plasminogen activator (t-PA) (UniProt P00750); experiment: surface plasmon resonance, phospholipid-associated AIIt; AIIt with t-PA
# [4] = target: [Glu]-plasminogen (human) (UniProt P00747); experiment: surface plasmon resonance, phospholipid-associated AIIt; AIIt with plasminogen
# [5] = target: T1, Annexin II heterotetramer (AIIt) purified from bovine lung (bovine, UniProt P04272 2-339; P60902 2-97); experiment: iodinated A61 (0.008-5 µM) on AIIt bound to phospholipid-coated wells, gamma counting
# T1 construct: also called annexin II tetramer
# Text: Binding of A₆₁ to AIIt—The purified A₆₁ was iodinated according to manufacturer's procedures. Iodinated A₆₁ retained biological activity as determined by the endothelial cell proliferation assay (Kassam et al., 2001). 96-well Immulon-1 Removawell strips (Dynex Technologies) were coated with phospholipid mixture containing 3:1 ratio of phosphatidylserine to phosphatidylcholine and air-dried. The coated strips were blocked with 1% fatty acid-free bovine serum albumin (BSA) in a buffer containing 20 mM Hepes (pH 7.4), 140 mM NaCl, and 2 mM CaCl₂ (buffer A) at room temperature for 2 h. The strips were washed with buffer A and incubated with 1 μM AIIt in buffer A at room temperature for 4 h. The strips were then washed and incubated with 0.008-5 μM iodinated A₆₁ with or without 30-fold molar excess of cold A₆₁ or BSA at 4° C. After overnight incubation, the strips were washed five times with PBS, and individual wells were detached and measured for radioactivity with a γ-counter. The data shown (n=6) are the average of two separate experiments.
# T1 sequence (P04272 2-339 limits assumed, chain 1 of 2): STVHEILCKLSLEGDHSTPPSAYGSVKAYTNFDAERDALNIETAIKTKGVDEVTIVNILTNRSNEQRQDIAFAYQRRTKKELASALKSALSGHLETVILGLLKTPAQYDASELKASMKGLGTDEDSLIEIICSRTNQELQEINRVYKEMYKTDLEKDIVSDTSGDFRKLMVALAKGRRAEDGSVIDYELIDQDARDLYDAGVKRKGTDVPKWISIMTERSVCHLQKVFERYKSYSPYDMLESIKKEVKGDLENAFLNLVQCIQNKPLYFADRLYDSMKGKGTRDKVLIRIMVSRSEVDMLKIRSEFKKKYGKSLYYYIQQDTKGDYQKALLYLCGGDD
# T1 sequence (P60902 2-97 limits assumed, chain 2 of 2): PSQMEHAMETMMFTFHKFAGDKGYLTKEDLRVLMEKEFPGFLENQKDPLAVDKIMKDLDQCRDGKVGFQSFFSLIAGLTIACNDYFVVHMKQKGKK
# Chain of [Glu]-plasminogen (human) (P00747 20-810 limits assumed): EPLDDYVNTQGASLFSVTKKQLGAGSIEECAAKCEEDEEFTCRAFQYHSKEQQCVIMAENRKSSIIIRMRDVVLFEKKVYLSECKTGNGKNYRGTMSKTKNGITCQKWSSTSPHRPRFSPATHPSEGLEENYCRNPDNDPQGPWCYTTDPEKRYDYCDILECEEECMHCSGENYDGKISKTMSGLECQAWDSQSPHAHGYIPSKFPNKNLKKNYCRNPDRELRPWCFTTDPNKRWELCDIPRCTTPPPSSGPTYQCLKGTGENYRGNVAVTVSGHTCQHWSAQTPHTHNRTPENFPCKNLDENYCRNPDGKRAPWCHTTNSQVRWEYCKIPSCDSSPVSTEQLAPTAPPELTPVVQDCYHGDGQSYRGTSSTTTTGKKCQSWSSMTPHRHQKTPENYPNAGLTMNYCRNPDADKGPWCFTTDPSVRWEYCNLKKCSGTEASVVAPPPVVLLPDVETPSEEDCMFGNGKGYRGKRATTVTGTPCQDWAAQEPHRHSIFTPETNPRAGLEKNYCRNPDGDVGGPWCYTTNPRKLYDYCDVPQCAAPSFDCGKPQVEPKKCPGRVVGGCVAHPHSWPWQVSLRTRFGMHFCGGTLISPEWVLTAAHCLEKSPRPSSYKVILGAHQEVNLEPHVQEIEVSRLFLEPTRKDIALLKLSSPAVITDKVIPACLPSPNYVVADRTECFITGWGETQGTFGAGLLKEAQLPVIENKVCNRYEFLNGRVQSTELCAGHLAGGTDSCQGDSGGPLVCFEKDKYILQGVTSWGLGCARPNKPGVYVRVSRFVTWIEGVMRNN
# Chain of tissue-type plasminogen activator (t-PA) (P00750 36-562 limits assumed): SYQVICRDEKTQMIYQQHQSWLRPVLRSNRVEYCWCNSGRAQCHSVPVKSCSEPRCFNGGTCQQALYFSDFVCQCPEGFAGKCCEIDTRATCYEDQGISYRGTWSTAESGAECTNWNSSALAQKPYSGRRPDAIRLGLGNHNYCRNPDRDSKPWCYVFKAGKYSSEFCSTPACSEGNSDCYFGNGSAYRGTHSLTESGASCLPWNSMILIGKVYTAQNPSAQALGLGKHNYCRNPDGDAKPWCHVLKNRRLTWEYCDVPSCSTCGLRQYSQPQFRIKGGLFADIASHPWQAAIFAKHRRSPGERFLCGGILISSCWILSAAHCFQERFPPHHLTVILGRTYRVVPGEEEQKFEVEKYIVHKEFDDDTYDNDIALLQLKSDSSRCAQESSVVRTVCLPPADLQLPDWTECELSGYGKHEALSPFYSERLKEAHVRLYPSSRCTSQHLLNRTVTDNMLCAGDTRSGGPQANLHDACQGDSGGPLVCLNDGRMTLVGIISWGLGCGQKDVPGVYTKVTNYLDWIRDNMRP
molecule,measurement,setting,value
"Annexin A2 (p36), phospholipid-associated (from UniProt P07355 2-339)",Kd,[1],780 nM
"Annexin II heterotetramer (AIIt), phospholipid-associated, as used in the surface plasmon resonance study of Example 12 (from UniProt P07355 2-339)",Kd,[2],750 nM
same,Kd,[3],680 nM
same,Kd,[4],110 nM
B1,Kd,[5],1000 nM
